Laboratory results: paper PMC5799202, “Eis, a novel family of arylalkylamine N-acetyltransferase (EC 2.3.1.87)” (Scientific Reports, 2018)
Read-outs that look alike come from different tables or passages of the source.

Assays:
Eis_Mtb = biological target: T1, Eis_Mtb (Mycobacterium tuberculosis, UniProt P9WFK7); test: dead-end inhibition kinetics, DTNB acetyltransferase assay, purified enzyme; format: biochemical
T1 construct: gene eis

[1] = test system: CCC(=O)SCCNC(=O)CCNC(=O)[C@H](O)C(C)(C)COP(=O)(O)OP(=O)(O)OC[C@H]1O[C@@H](n2cnc3c(N)ncnc32)[C@H](O)[C@@H]1OP(=O)(O)O; test: purified protein
NCCc1c[nH]cn1 = test: purified protein
[2] = test system: CC(=O)SCCNC(=O)CCNC(=O)[C@H](O)C(C)(C)COP(=O)(O)OP(=O)(O)OC[C@H]1O[C@@H](n2cnc3c(N)ncnc32)[C@H](O)[C@@H]1OP(=O)(O)O; test: purified protein; conditions: acetyl-CoA binding first followed by histamine (ordered sequential mechanism)
[3] = acetyl-CoA binds after acetyl-CoA to form a precatalytic ternary complex

T1 sequence (P9WFK7 2-402): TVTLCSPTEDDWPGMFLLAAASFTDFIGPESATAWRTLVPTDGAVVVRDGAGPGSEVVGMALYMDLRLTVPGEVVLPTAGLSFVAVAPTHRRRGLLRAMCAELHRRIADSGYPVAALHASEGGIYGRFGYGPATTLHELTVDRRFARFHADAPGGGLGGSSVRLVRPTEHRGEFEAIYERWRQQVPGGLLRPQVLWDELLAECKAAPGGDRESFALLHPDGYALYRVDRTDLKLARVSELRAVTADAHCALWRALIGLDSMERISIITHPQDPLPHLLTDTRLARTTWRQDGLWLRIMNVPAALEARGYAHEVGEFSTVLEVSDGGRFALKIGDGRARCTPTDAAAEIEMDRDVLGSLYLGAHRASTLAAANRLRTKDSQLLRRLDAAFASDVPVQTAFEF

CCCCCCCC/C=C\CCCCCCCC(=O)SCCNC(=O)CCNC(=O)[C@H](O)C(C)(C)COP(=O)(O)OP(=O)(O)OC[C@H]1O[C@@H](n2cnc3c(N)ncnc32)[C@H](O)[C@@H]1OP(=O)(O)O [oleoyl-CoA]
Ki (Eis_Mtb): 0.268 ± 0.0684 µM

Eis_Msm (Mycolicibacterium smegmatis MC2 155)
Km [1]: 98 ± 23 µM

Eis_Mtb (Mycobacterium tuberculosis H37Rv)
Km (NCCc1c[nH]cn1): (28 ± 5.2) × 10^2 μM
kcat (NCCc1c[nH]cn1; [3]): 0.5 ± 0.04 s⁻¹
kcat/Km (NCCc1c[nH]cn1; [3]): 170 ± 83 M⁻¹ s⁻¹
Km [1]: 47 ± 10 µM
kcat [1]: 0.6 ± 0.1 s⁻¹
kcat/Km [1]: 14000 ± 4000 M⁻¹ s⁻¹
Km [2]: (1.2 ± 0.27) × 10^2 μM
kcat [2]: 5.6 ± 0.2 s⁻¹
kcat/Km [2]: 52000 ± 13000 M⁻¹ s⁻¹

OCCc1ccc(O)cc1 [tyrosol]
Ki (Eis_Mtb; read-out: Ki): 175 ± 48.7 µM
